One block for each binder: values may come before it.
Experiments:
[1] = target: T1, BCD domains of murine tenascin-C (murine, UniProt Q80YX1 1349-1620, limits assumed); experiment: Biacore (SPR), scFv on BCD domains of murine tenascin-C
T1 construct: domain: BCD domains; Coated on a CM5 chip; also called domain BCD of murine Tenascin-C
T1 sequence (looked up): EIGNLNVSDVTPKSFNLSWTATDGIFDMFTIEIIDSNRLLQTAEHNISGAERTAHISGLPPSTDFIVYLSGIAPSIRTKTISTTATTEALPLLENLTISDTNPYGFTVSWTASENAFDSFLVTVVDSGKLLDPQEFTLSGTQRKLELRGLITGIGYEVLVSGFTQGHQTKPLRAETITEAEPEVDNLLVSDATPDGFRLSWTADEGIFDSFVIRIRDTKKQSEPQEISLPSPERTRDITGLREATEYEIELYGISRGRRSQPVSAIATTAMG

[2] = target: T2, D domain of human Tenascin-C (human, UniProt P24821 1622-1711, limits assumed); experiment: Biacore (SPR), scFv over CM5 chip coated with human tenascin-C D domain
T2 construct: domain: D domain; Coated on a CM5 chip; also called domain D of human Tenascin-C; human tenascin-C D domain
T2 sequence (looked up): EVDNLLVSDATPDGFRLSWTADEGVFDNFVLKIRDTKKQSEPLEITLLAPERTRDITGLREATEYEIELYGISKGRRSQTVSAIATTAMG
Procedure: CPR01 was analysed for antigen binding by Biacore using a CM5 chip coated with the human tenascin-C D domain. The flow rate for the Biacore analysis was set at 10 μL/min.

murine MMP3 = murine MMP3 (murine, UniProt P28862 100-272); experiment: Biacore (SPR), scFv; set-up not described
human MMP3 = human MMP3 (human, UniProt P08254 100-272); experiment: Biacore (SPR), scFv; set-up not described
Sequence of human MMP3 (P08254 100-272): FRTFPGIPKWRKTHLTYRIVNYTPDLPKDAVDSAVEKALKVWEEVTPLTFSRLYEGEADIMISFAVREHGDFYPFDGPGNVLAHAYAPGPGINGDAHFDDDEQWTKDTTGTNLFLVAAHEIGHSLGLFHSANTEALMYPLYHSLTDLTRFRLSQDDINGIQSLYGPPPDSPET

Sequence of murine MMP3 (P28862 100-272): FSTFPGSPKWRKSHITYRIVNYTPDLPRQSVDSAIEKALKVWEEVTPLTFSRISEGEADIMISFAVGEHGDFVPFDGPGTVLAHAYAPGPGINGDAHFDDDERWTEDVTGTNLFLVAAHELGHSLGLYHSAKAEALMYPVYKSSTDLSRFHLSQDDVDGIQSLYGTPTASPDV

Kd [1]: 29 nM
koff [1]: 0.007 s⁻¹
kon [1]: 240000 M⁻¹ s⁻¹
Kd [2]: 70 nM
koff [2]: 0.011 s⁻¹
kon [2]: 151000 M⁻¹ s⁻¹
B1: scFv(CPR01) (scFv)
scFv: EVQLLESGGGLVQPGGSLRLSCAASGFTFSSYAMSWVRQAPGKGLEWVSAIKARGGLTYYADSVKGRFTISRDNSKNTLYLQMNSLRAEDTAVYYCAKGGAPFDYWGQGTLVTVSSGGGGSGGGGSGGGGSSELTQDPAVSVALGQTVRITCQGDSLRSYYASWYQQKPGQAPVLVIYGKNNRPSGIPDRFSGSSSGNTASLTITGAQAEDEADYYCNSSPLNRLAVVFGGGTKLTVLG
notes: Expressed in CHO.S cells as scFv

Kd (murine MMP3): 29 nM
koff (murine MMP3): 0.0025 s⁻¹
kon (murine MMP3): 80000 M⁻¹ s⁻¹
Kd (human MMP3): 28 nM
koff (human MMP3): 0.0047 s⁻¹
kon (human MMP3): 170000 M⁻¹ s⁻¹
B2: scFv(CH01) (scFv)
scFv: EVQLLESGGGLVQPGGSLRLSCAASGFTFSPYAMSWVRQAPGKGLEWVSAITGQGGVTYYADSVKGRFTISRDNSKNTLYLQMNSLRAEDTAVYYCAKISSFHFDYWGQGTLVTVSSGGGGSGGGGSGGGGEIVLTQSPGTLSLSPGERATLSCRASQSVSSHHLAWYQQKPGQAPRLLIYDASSRATGIPDRFSGSGSGTDFTLTISRLEPEDFAVYYCQQPRGAPTTFGQGTKVEIK
notes: First disclosed in PCT/EP2015/067309; also called anti-MMP3 antibody CH01
